# Test results: patent US20220041738A1 (SAITAMA MEDICAL UNIVERSITY, published 2022)
# T1: human ALK2 extracellular domain with C-terminal His tag (E. coli) (human, UniProt Q04771 21-123)
# T1 construct: Expressed in E. coli SHuffle T7, purified to a single band of 12 kDa; also called ALK2-ECD; human ALK2-ECD; not shown: C-terminal His tag from pET-28b(+)
# T1 sequence: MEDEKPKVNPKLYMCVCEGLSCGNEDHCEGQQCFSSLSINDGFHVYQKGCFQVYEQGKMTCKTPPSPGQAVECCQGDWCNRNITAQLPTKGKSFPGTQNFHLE
# T2: Recombinant Human ALK2 Fc Chimera (Sino Biological Inc.) (human, UniProt Q04771 21-123)
# T2 construct: Bought product; not shown: Fc of the bought chimera
# T2 sequence: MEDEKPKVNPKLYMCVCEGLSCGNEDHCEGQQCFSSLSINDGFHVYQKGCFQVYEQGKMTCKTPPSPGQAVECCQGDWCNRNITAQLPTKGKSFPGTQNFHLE
# Target: T1, human ALK2 extracellular domain with …
# Assay: SPR, Biacore T200; antibody captured from culture supernatant by anti-human IgG (Fc), antigen as analyte; 1:1 binding model
# Experimental: The dissociation constants of the humanized A2-11E antibodies (IgG1) and the humanized A2-25C antibodies (IgG1) prepared in Example 18)-5 for the antigen (human ALK2 extracellular domain prepared in Example 14)-1) were measured using Biacore T200 (GE Healthcare Bio-Sciences Corp.) by the capture method which involves capturing each antibody as a ligand onto an immobilized anti-human IgG (Fc) antibody and assaying the antigen as an analyte. Approximately 1000 RU of the anti-human IgG (Fc) antibody (Human Antibody Capture kit, GE Healthcare Bio-Sciences Corp.) was covalently bound to a sensor chip CM5 (GE Healthcare Bio-Sciences Corp.) by the amine coupling method. Similarly, this antibody was immobilized onto a reference cell. The running buffer used was HBS-EP+(10 mM HEPES (pH 7.4), 0.15 M NaCl, 3 mM EDTA, and 0.05% Surfactant P20). The culture supernatant containing the antibody was added onto the anti-human IgG (Fc) antibody-immobilized chip for approximately 1 minute. Then, serially diluted solutions (0.78 to 200 nM) of the antigen were added thereto at a flow rate of 30 μl/min for 300 seconds. Subsequently, the dissociation phase was monitored for 600 seconds. 3 M MgCl₂ was added thereto as a regenerating solution at a flow rate of 10 μl/min for 30 seconds. The data was analyzed using 1:1 binding models of analytical software (BIAevaluation software, version 1.0) to calculate an association rate constant ka, a dissociation rate constant kd, and a dissociation constant (KD; KD=kd/ka).
row,Binder,Kd [nM]
1,"humanized hA2-11E-H3/L3 (antibody, human IgG1, kappa, V domains shown, Human IgG1, kappa; used as culture supernatant of FreeStyle 293F cells) VH: EVQLVESGGGLVQPGGSLRLSCAASGFTFSNYYMYWIRQAPGKGLEWVSSINTDGGSTYYADSVKGRFTISRDNSKNTVYLQMNSLRAEDTAVYYCAKSTPNIPLAYWGQGTLVTVSS VL: DIQMTQSPSSLSASVGDRVTITCKASQNIYKYLNWFQQKPGKAPKLLIYYSNSLQTGIPSRFSGSGSGTDFTLTISSLQPEDFATYYCFQYSSGPTFGQGTKVEIKR",47.4
2,"humanized hA2-11E-H3/L2 (antibody, human IgG1, kappa, V domains shown, Human IgG1, kappa; used as culture supernatant of FreeStyle 293F cells) VH: EVQLVESGGGLVQPGGSLRLSCAASGFTFSNYYMYWIRQAPGKGLEWVSSINTDGGSTYYADSVKGRFTISRDNSKNTVYLQMNSLRAEDTAVYYCAKSTPNIPLAYWGQGTLVTVSS VL: DIQMTQSPSSLSASVGDRVTITCKASQNIYKYLNWFQQKPGKAPKLLIYYSNSLQTGVPSRFSGSGSGTDFTLTISSLQPEDFATYYCFQYSSGPTFGQGTKVEIKR",63.1
3,"humanized hA2-25C-H3/L2 (antibody, human IgG1, kappa, V domains shown, Human IgG1, kappa; used as culture supernatant of FreeStyle 293F cells) VH: EVQLVESGGGLVQPGGSLRLSCAASGFTFSYYAMSWVRQAPGKGLEWVASISRGGDNTYYRDSVKGRFTTSRDNSKNTLYLQMNSLRAEDTAVYYCARLNYNNYFDYWGQGTLVTVSS VL: DIQMTQSPSSLSASVGDRVTITCQASQDIGNWLSWYQQKPGKAPKLLIYGATSLADGVPSRFSGSRSGTDYTLTISSLQPEDFATYYCLQAYSAPFTFGQGTKVEIKR",53.3
4,"humanized hA2-25C-H4/L2 (antibody, human IgG1, kappa, V domains shown, Human IgG1, kappa; used as culture supernatant of FreeStyle 293F cells) VH: EVQLVESGGGLVQPGGSLRLSCAASGFTFSYYAMSWVRQAPGKGLEWVASISRGGDNTYYRDSVKGRFTTSRDNSKNTLYLQMNSLRAEDTATYYCARLNYNNYFDYWGQGVLVTVSS VL: DIQMTQSPSSLSASVGDRVTITCQASQDIGNWLSWYQQKPGKAPKLLIYGATSLADGVPSRFSGSRSGTDYTLTISSLQPEDFATYYCLQAYSAPFTFGQGTKVEIKR",56.7
5,"humanized hA2-25C-H3/L1 (antibody, human IgG1, kappa, V domains shown, Human IgG1, kappa; used as culture supernatant of FreeStyle 293F cells) VH: EVQLVESGGGLVQPGGSLRLSCAASGFTFSYYAMSWVRQAPGKGLEWVASISRGGDNTYYRDSVKGRFTTSRDNSKNTLYLQMNSLRAEDTAVYYCARLNYNNYFDYWGQGTLVTVSS VL: DIQMTQSPSSLSASVGDRVTITCQASQDIGNWLSWYQQKPGKAPKLLIYGATSLADGVPSRFSGSGSGTDFTLTISSLQPEDFATYYCLQAYSAPFTFGQGTKVEIKR",116
6,"humanized hA2-25C-H4/L1 (antibody, human IgG1, kappa, V domains shown, Human IgG1, kappa; used as culture supernatant of FreeStyle 293F cells) VH: EVQLVESGGGLVQPGGSLRLSCAASGFTFSYYAMSWVRQAPGKGLEWVASISRGGDNTYYRDSVKGRFTTSRDNSKNTLYLQMNSLRAEDTATYYCARLNYNNYFDYWGQGVLVTVSS VL: DIQMTQSPSSLSASVGDRVTITCQASQDIGNWLSWYQQKPGKAPKLLIYGATSLADGVPSRFSGSGSGTDFTLTISSLQPEDFATYYCLQAYSAPFTFGQGTKVEIKR",81.8
7,"humanized hA2-25C-H3/L3 (antibody, human IgG1, kappa, V domains shown, Human IgG1, kappa; used as culture supernatant of FreeStyle 293F cells) VH: EVQLVESGGGLVQPGGSLRLSCAASGFTFSYYAMSWVRQAPGKGLEWVASISRGGDNTYYRDSVKGRFTTSRDNSKNTLYLQMNSLRAEDTAVYYCARLNYNNYFDYWGQGTLVTVSS VL: DIQMTQSPSSLSASVGDRVTITCQASQDIGNWLSWYQQKPGKSPKLLIYGATSLADGVPSRFSGSRSGTQYTLTISSLQPEDFATYYCLQAYSAPFTFGSGTKVEIKR",64.4

# Results, then the binder that gave them:
row,Kd [nM],Binder
1,11.1,"humanized hA2-11E-H4/L4 (antibody, human IgG1, kappa, V domains shown, Human IgG1, kappa; used as culture supernatant of FreeStyle 293F cells) VH: EVQLVESGGGLVQPGGSLRLSCAASGFTFSNYYMYWIRQAPGKGLEWISSINTDGGSTYYPDSVKGRFTISRDNSKNTVYLQMNSLRAEDTAVYYCAKSTPNIPLAYWGQGTLVTVSS VL: DIQMTQSPSSLSASVGDRVTISCKASQNIYKYLNWFQQKPGEAPKLLIYYSNSLQTGIPSRFSGSGSGTDFTLTISSLQPEDFAIYFCFQYSSGPTFGPGTKVEIKR"
2,18.5,"humanized hA2-11E-H4/L3 (antibody, human IgG1, kappa, V domains shown, Human IgG1, kappa; used as culture supernatant of FreeStyle 293F cells) VH: EVQLVESGGGLVQPGGSLRLSCAASGFTFSNYYMYWIRQAPGKGLEWISSINTDGGSTYYPDSVKGRFTISRDNSKNTVYLQMNSLRAEDTAVYYCAKSTPNIPLAYWGQGTLVTVSS VL: DIQMTQSPSSLSASVGDRVTITCKASQNIYKYLNWFQQKPGKAPKLLIYYSNSLQTGIPSRFSGSGSGTDFTLTISSLQPEDFATYYCFQYSSGPTFGQGTKVEIKR"
3,31.3,"humanized hA2-11E-H3/L4 (antibody, human IgG1, kappa, V domains shown, Human IgG1, kappa; used as culture supernatant of FreeStyle 293F cells) VH: EVQLVESGGGLVQPGGSLRLSCAASGFTFSNYYMYWIRQAPGKGLEWVSSINTDGGSTYYADSVKGRFTISRDNSKNTVYLQMNSLRAEDTAVYYCAKSTPNIPLAYWGQGTLVTVSS VL: DIQMTQSPSSLSASVGDRVTISCKASQNIYKYLNWFQQKPGEAPKLLIYYSNSLQTGIPSRFSGSGSGTDFTLTISSLQPEDFAIYFCFQYSSGPTFGPGTKVEIKR"
4,19.9,"humanized hA2-11E-H4/L2 (antibody, human IgG1, kappa, V domains shown, Human IgG1, kappa; used as culture supernatant of FreeStyle 293F cells) VH: EVQLVESGGGLVQPGGSLRLSCAASGFTFSNYYMYWIRQAPGKGLEWISSINTDGGSTYYPDSVKGRFTISRDNSKNTVYLQMNSLRAEDTAVYYCAKSTPNIPLAYWGQGTLVTVSS VL: DIQMTQSPSSLSASVGDRVTITCKASQNIYKYLNWFQQKPGKAPKLLIYYSNSLQTGVPSRFSGSGSGTDFTLTISSLQPEDFATYYCFQYSSGPTFGQGTKVEIKR"
5,27.9,"humanized hA2-25C-H4/L3 (antibody, human IgG1, kappa, V domains shown, Human IgG1, kappa; used as culture supernatant of FreeStyle 293F cells) VH: EVQLVESGGGLVQPGGSLRLSCAASGFTFSYYAMSWVRQAPGKGLEWVASISRGGDNTYYRDSVKGRFTTSRDNSKNTLYLQMNSLRAEDTATYYCARLNYNNYFDYWGQGVLVTVSS VL: DIQMTQSPSSLSASVGDRVTITCQASQDIGNWLSWYQQKPGKSPKLLIYGATSLADGVPSRFSGSRSGTQYTLTISSLQPEDFATYYCLQAYSAPFTFGSGTKVEIKR"

# Target: T2, Recombinant Human ALK2 Fc Chimera (Sino …)
# Assay: SPR, Biacore T200; antigen immobilised on CM5 chip, antibody as analyte; bivalent binding model
# Experimental: The dissociation constants of humanized hA2-15A-H4/L6, humanized hA2-27D-H2/L2, and humanized hA2-27D-H3/L4 prepared in Example 8)-5 for the antigen (Recombinant Human ALK2 Fc Chimera, Sino Biological Inc.) were measured in Biacore T200 (GE Healthcare Bio-Sciences Corp.) by using the antigen immobilized as a ligand and each antibody as an analyte. The antigen was added at 1.25 μg/mL for 60 seconds and immobilized onto a sensor chip CM5 (GE Healthcare Bio-Sciences Corp.). The running buffer used was HBS-EP+(10 mM HEPES (pH 7.4), 0.15 M NaCl, 3 mM EDTA, and 0.05% Surfactant P20). Serially diluted solutions (0.2 to 50 nM) of the antibody were added onto the antigen-immobilized chip at a flow rate of 30 μl/min for 300 seconds. Subsequently, the dissociation phase was monitored for 1800 seconds. A 10 mM glycine/hydrochloric acid solution (pH 1.5) was added thereto as a regenerating solution at a flow rate of 10 μl/min for 30 seconds twice. The data was analyzed using bivalent binding models of analytical software (BIAevaluation software, version 1.0) to calculate an association rate constant ka, a dissociation rate constant kd, and a dissociation constant (KD; KD=kd/ka).
row,Kd [nM],Binder
1,5.7,"humanized hA2-27D-H2/L2 (antibody, human IgG1, Human IgG1, kappa; also called humanized A2-27D antibody (IgG1)) heavy: not shown light: EIVLTQSPGTLSLSPGERATLSCLASSSVSYMTWYQQKPGQSPRLWIYGTSNLASGVPDRFSGSGSGTDFTLTISRLEPEDFAVYYCLHLTSYPPYTFGQGTKVEIKRAVAAPSVFIFPPSDEQLKSGTASVVCLLNNFYPREAKVQWKVDNALQSGNSQESVTEQDSKDSTYSLSSTLTLSKADYEKHKVYACEVTHQGLSSPVTKSFNRGEC"
2,4.3,"humanized hA2-27D-H3/L4 (antibody, human IgG1, Human IgG1, kappa; also called humanized A2-27D antibody (IgG1)) heavy: not shown light: EIVLTQSPGTMSASPGERVTLSCLASSSVSYMTWYQQKPGASPRLWIYGTSNLASGVPDRFSGSGSGTDYTLTISRMEPEDFATYYCLHLTSYPPYTFGAGTKLELKRAVAAPSVFIFPPSDEQLKSGTASVVCLLNNFYPREAKVQWKVDNALQSGNSQESVTEQDSKDSTYSLSSTLTLSKADYEKHKVYACEVTHQGLSSPVTKSFNRGEC"
3,4.3,"humanized hA2-15A-H4/L6 (antibody, human IgG1, Human IgG1, kappa; also called humanized A2-15A antibody (IgG1)) heavy: not shown light: DIVLTQSPDSLAVSLGERATINCRANQGVSLSRYNLMHWYQQKPGQKPKLLIYRSSNLAQGIPARFSGSGSGTDFTLTISSVQADDIAVYYCQQSRESPFTFGQGTKLELKRAVAAPSVFIFPPSDEQLKSGTASVVCLLNNFYPREAKVQWKVDNALQSGNSQESVTEQDSKDSTYSLSSTLTLSKADYEKHKVYACEVTHQGLSSPVTKSFNRGEC"
